According to patent US20250109209A1 (ABSCI, published 2025):

How the values were obtained:
[1] = target: T1, human TL1A (human, UniProt O95150 72-251); assay: SPR, mAb format, average
T1 construct: Antigen in SPR and ELISA; Also used here for places that print only 'TL1A' and for endogenous TL1A in human whole blood; also called TNFSF15
T1 sequence (looked up): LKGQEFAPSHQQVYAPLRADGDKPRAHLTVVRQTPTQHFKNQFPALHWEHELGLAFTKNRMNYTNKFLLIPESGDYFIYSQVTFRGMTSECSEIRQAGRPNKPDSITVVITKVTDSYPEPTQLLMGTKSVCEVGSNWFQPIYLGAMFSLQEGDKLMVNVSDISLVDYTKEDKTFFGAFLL

[2] = target: T1, human TL1A; assay: SPR, mAb format, average; remark: listed apart in the source
[3] = target: T2, FcRn (UniProt P55899 24-297; P61769 21-119); assay: SPR, mAb format, FcRn at pH 6.0, average
T2 construct: also called neonatal receptor
T2 sequence (P55899 24-297 limits assumed, chain 1 of 2): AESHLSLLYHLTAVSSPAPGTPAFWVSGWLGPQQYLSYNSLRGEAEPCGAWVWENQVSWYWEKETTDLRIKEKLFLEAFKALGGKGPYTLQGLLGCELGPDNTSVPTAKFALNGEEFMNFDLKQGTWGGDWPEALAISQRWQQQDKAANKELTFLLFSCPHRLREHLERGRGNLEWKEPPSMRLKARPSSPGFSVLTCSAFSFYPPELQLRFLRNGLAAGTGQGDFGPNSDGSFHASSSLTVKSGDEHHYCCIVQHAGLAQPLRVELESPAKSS
T2 sequence (P61769 21-119 limits assumed, chain 2 of 2): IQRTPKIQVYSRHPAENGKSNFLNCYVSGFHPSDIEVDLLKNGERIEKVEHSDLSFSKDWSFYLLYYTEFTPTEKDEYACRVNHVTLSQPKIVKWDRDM

[4] = target: T3, Cyno TL1A (cyno, UniProt G7PRK8 72-251); assay: SPR, mAb format, average
T3 sequence: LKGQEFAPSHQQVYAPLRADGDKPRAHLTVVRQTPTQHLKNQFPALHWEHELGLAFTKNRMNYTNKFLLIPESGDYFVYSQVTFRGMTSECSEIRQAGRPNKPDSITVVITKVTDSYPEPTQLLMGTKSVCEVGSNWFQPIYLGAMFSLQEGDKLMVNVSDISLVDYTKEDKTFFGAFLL

[5] = target: T4, mouse TL1A (mouse, UniProt Q5UBV8 76-252, limits assumed); assay: SPR, mAb format, average
T4 sequence (looked up): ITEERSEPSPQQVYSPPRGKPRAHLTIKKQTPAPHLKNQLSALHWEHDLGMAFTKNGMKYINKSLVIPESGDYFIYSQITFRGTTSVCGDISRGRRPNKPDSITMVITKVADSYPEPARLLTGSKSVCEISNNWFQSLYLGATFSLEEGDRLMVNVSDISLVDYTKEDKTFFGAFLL

[6] = target: T1, human TL1A; assay: SPR, mAb format, average; remark: listed apart in the source
[7] = target: T1, human TL1A; assay: SPR, Fab lysate, average
[8] = target: T3, Cyno TL1A; assay: SPR, Fab format, average
[9] = target: T1, human TL1A; assay: SPR, Fab format, average
[10] = target: T1, human TL1A; assay: SPR, Fab format

B1: Antibody 16 (mAb format) (antibody, human IgG1, kappa, N297A)
heavy: QVQLQESGPGLVRPSQTLSLTCTVSGFDMQSTYMHWVRQRPGRGLEWMGRIEPAGGHTKYNPSLKSRVTITRDTSKNQVSLRLSSVTAADTAVYYCVRSGGLPDVWGQGSLVTVSSASTKGPSVFPLAPSSKSTSGGTAALGCLVKDYFPEPVTVSWNSGALTSGVHTFPAVLQSSGLYSLSSVVTVPSSSLGTQTYICNVNHKPSNTKVDKKVEPKSCDKTHTCPPCPAPELLGGPSVFLFPPKPKDTLMISRTPEVTCVVVDVSHEDPEVKFNWYVDGVEVHNAKTKPREEQYASTYRVVSVLTVLHQDWLNGKEYKCKVSNKALPAPIEKTISKAKGQPREPQVYTLPPSRDELTKNQVSLTCLVKGFYPSDIAVEWESNGQPENNYKTTPPVLDSDGSFFLYSKLTVDKSRWQQGNVFSCSVLHEALHSHYTQKSLSLSPGK
light: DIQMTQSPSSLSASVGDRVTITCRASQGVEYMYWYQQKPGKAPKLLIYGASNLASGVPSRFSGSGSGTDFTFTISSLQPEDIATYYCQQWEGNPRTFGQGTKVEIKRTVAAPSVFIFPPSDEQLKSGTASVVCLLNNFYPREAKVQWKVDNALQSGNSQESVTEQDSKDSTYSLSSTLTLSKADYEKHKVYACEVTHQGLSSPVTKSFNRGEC
notes: also called high priority lead mAb
In the case of B1, the Kd [1] is reported as 0.339 nM, the Kd [2] is reported as 0.339 nM and the Kd [3] is reported as 17.7 nM. It also gave a Kd [4] of 0.09 nM, a Kd [5] of 955 nM and a Kd [6] of 0.339 nM.

B2: Antibody 8 (mAb format) (antibody, human IgG1, kappa, N297A)
heavy: QVQLQESGPGLVRPSQTLSLTCTVSGFDMQSTYMHWVRQRPGRGLEWMGRIEPAGGHTKYNPSLKSRVTITRDTSKNQVSLRLSSVTAADTAVYYCVRSGGLPDVWGQGSLVTVSSASTKGPSVFPLAPSSKSTSGGTAALGCLVKDYFPEPVTVSWNSGALTSGVHTFPAVLQSSGLYSLSSVVTVPSSSLGTQTYICNVNHKPSNTKVDKKVEPKSCDKTHTCPPCPAPELLGGPSVFLFPPKPKDTLMISRTPEVTCVVVDVSHEDPEVKFNWYVDGVEVHNAKTKPREEQYASTYRVVSVLTVLHQDWLNGKEYKCKVSNKALPAPIEKTISKAKGQPREPQVYTLPPSRDELTKNQVSLTCLVKGFYPSDIAVEWESNGQPENNYKTTPPVLDSDGSFFLYSKLTVDKSRWQQGNVFSCSVLHEALHSHYTQKSLSLSPGK
light: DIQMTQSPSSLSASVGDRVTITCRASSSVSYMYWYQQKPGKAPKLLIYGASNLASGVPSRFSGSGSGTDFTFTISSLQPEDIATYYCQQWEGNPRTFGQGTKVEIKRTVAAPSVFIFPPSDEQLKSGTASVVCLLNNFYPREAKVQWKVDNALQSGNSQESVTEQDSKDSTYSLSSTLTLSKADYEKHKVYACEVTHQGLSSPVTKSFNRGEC
notes: as for B1
In the case of B2, the Kd [1] is reported as 0.091 nM, the Kd [2] is reported as 0.091 nM and the Kd [3] is reported as 17.6 nM. For the same binder, the Kd [4] was 0.085 nM, the Kd [5] was 418 nM and the Kd [6] was 0.091 nM.

B3: Antibody 5 (mAb format) (antibody, human IgG1, kappa, N297A)
heavy: QVQLQESGPGLVRPSQTLSLTCTVSGFDMQDTYMHWVRQRPGRGLEWMGRIEPASGHTKYNPSLKSRVTITRDTSKNQVSLRLSSVTAADTAVYYCVRSGGLPDVWGQGSLVTVSSASTKGPSVFPLAPSSKSTSGGTAALGCLVKDYFPEPVTVSWNSGALTSGVHTFPAVLQSSGLYSLSSVVTVPSSSLGTQTYICNVNHKPSNTKVDKKVEPKSCDKTHTCPPCPAPELLGGPSVFLFPPKPKDTLMISRTPEVTCVVVDVSHEDPEVKFNWYVDGVEVHNAKTKPREEQYASTYRVVSVLTVLHQDWLNGKEYKCKVSNKALPAPIEKTISKAKGQPREPQVYTLPPSRDELTKNQVSLTCLVKGFYPSDIAVEWESNGQPENNYKTTPPVLDSDGSFFLYSKLTVDKSRWQQGNVFSCSVLHEALHSHYTQKSLSLSPGK
light: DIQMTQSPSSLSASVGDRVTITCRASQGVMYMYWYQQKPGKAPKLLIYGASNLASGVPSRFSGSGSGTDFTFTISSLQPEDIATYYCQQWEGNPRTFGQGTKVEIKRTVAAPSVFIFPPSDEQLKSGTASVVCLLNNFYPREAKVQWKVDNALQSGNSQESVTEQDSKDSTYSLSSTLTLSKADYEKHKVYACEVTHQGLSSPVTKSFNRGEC
notes: as for B1
For B3, the Kd [1] was 0.073 nM, the Kd [2] was 0.073 nM and the Kd [3] was 17.2 nM. For the same binder, the Kd [4] was 0.038 nM, the Kd [5] was 727 nM and the Kd [6] was 0.073 nM.

B4: Antibody 1 (mAb format) (antibody, human IgG1, kappa, N297A)
heavy: QVQLQESGPGLVRPSQTLSLTCTVSGFDIQDTYMHWVRQRPGRGLEWMGRIEPAGGHTKYNPSLKSRVTITRDTSKNQVSLRLSSVTAADTAVYYCASSGGMPDLWGQGSLVTVSSASTKGPSVFPLAPSSKSTSGGTAALGCLVKDYFPEPVTVSWNSGALTSGVHTFPAVLQSSGLYSLSSVVTVPSSSLGTQTYICNVNHKPSNTKVDKKVEPKSCDKTHTCPPCPAPELLGGPSVFLFPPKPKDTLMISRTPEVTCVVVDVSHEDPEVKFNWYVDGVEVHNAKTKPREEQYASTYRVVSVLTVLHQDWLNGKEYKCKVSNKALPAPIEKTISKAKGQPREPQVYTLPPSRDELTKNQVSLTCLVKGFYPSDIAVEWESNGQPENNYKTTPPVLDSDGSFFLYSKLTVDKSRWQQGNVFSCSVLHEALHSHYTQKSLSLSPGK
light: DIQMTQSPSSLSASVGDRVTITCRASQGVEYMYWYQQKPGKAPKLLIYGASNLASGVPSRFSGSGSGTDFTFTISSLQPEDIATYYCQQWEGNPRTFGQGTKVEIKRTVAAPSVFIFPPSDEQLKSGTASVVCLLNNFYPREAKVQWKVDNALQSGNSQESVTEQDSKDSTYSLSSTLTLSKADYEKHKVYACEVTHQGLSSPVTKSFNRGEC
notes: also called Lead #1; high priority lead mAb
B4 showed a Kd [1] of 0.151 nM, a Kd [2] of 0.151 nM and a Kd [3] of 17.5 nM. For the same binder, the Kd [4] was 0.139 nM, the Kd [5] was 74500 nM and the Kd [6] was 0.151 nM.

B5: Antibody 6 (mAb format) (antibody, human IgG1, kappa, N297A)
heavy: QVQLQESGPGLVRPSQTLSLTCTVSGFDMADTYMHWVRQRPGRGLEWMGRIEPAGGHTKYNPSLKSRVTITRDTSKNQVSLRLSSVTAADTAVYYCVRSGGLPDMWGQGSLVTVSSASTKGPSVFPLAPSSKSTSGGTAALGCLVKDYFPEPVTVSWNSGALTSGVHTFPAVLQSSGLYSLSSVVTVPSSSLGTQTYICNVNHKPSNTKVDKKVEPKSCDKTHTCPPCPAPELLGGPSVFLFPPKPKDTLMISRTPEVTCVVVDVSHEDPEVKFNWYVDGVEVHNAKTKPREEQYASTYRVVSVLTVLHQDWLNGKEYKCKVSNKALPAPIEKTISKAKGQPREPQVYTLPPSRDELTKNQVSLTCLVKGFYPSDIAVEWESNGQPENNYKTTPPVLDSDGSFFLYSKLTVDKSRWQQGNVFSCSVLHEALHSHYTQKSLSLSPGK
light: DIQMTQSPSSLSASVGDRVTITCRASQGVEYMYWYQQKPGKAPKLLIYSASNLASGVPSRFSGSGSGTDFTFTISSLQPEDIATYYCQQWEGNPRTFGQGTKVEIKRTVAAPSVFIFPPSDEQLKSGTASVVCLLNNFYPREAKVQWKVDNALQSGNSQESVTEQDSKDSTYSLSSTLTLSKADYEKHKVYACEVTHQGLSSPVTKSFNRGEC
notes: as for B1
B5 was tested, and the Kd [1] was 0.101 nM, the Kd [2] was 0.101 nM and the Kd [3] was 20.9 nM. For the same binder, the Kd [4] was 0.085 nM, the Kd [5] was 1720 nM and the Kd [6] was 0.101 nM.

B6: Antibody 7 (mAb format) (antibody, human IgG1, kappa, N297A)
heavy: QVQLQESGPGLVRPSQTLSLTCTVSGFDMGDTYMHWVRQRPGRGLEWMGRIEPAAGHTKYNPSLKSRVTITRDTSKNQVSLRLSSVTAADTAVYYCVRSGGLPDIWGQGSLVTVSSASTKGPSVFPLAPSSKSTSGGTAALGCLVKDYFPEPVTVSWNSGALTSGVHTFPAVLQSSGLYSLSSVVTVPSSSLGTQTYICNVNHKPSNTKVDKKVEPKSCDKTHTCPPCPAPELLGGPSVFLFPPKPKDTLMISRTPEVTCVVVDVSHEDPEVKFNWYVDGVEVHNAKTKPREEQYASTYRVVSVLTVLHQDWLNGKEYKCKVSNKALPAPIEKTISKAKGQPREPQVYTLPPSRDELTKNQVSLTCLVKGFYPSDIAVEWESNGQPENNYKTTPPVLDSDGSFFLYSKLTVDKSRWQQGNVFSCSVLHEALHSHYTQKSLSLSPGK
light: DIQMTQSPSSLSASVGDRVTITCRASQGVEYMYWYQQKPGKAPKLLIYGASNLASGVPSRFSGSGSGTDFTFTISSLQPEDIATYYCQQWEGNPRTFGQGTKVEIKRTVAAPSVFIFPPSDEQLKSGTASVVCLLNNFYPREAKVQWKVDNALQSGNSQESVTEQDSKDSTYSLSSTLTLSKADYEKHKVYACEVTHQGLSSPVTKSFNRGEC
notes: as for B1
B6 gave a Kd [1] of 0.179 nM, a Kd [2] of 0.179 nM and a Kd [3] of 19 nM. The Kd [4] was 0.125 nM, the Kd [5] was 1270 nM and the Kd [6] was 0.179 nM.

B7: Antibody 9 (mAb format) (antibody, human IgG1, kappa, N297A)
heavy: QVQLQESGPGLVRPSQTLSLTCTVSGFDIQDTYMHWVRQRPGRGLEWMGRIEPAGGHTKYNPSLKSRVTITRDTSKNQVSLRLSSVTAADTAVYYCVRSGGLPDAWGQGSLVTVSSASTKGPSVFPLAPSSKSTSGGTAALGCLVKDYFPEPVTVSWNSGALTSGVHTFPAVLQSSGLYSLSSVVTVPSSSLGTQTYICNVNHKPSNTKVDKKVEPKSCDKTHTCPPCPAPELLGGPSVFLFPPKPKDTLMISRTPEVTCVVVDVSHEDPEVKFNWYVDGVEVHNAKTKPREEQYASTYRVVSVLTVLHQDWLNGKEYKCKVSNKALPAPIEKTISKAKGQPREPQVYTLPPSRDELTKNQVSLTCLVKGFYPSDIAVEWESNGQPENNYKTTPPVLDSDGSFFLYSKLTVDKSRWQQGNVFSCSVLHEALHSHYTQKSLSLSPGK
light: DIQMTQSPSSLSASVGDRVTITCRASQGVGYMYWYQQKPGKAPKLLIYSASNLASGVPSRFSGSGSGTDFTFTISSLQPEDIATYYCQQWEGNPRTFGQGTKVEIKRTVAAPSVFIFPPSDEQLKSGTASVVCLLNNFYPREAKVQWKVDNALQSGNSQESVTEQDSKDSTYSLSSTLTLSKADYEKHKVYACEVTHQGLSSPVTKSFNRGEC
notes: as for B1
B7 showed a Kd [1] of 0.096 nM, a Kd [2] of 0.096 nM and a Kd [3] of 18.2 nM. For the same binder, the Kd [4] was 0.064 nM, the Kd [5] was 739 nM and the Kd [6] was 0.096 nM.

B8: Antibody 4 (mAb format) (antibody, human IgG1, kappa, N297A)
heavy: QVQLQESGPGLVRPSQTLSLTCTVSGFDMADTYMHWVRQRPGRGLEWMGRIEPAGGHTKYNPSLKSRVTITRDTSKNQVSLRLSSVTAADTAVYYCVRSGGLPDMWGQGSLVTVSSASTKGPSVFPLAPSSKSTSGGTAALGCLVKDYFPEPVTVSWNSGALTSGVHTFPAVLQSSGLYSLSSVVTVPSSSLGTQTYICNVNHKPSNTKVDKKVEPKSCDKTHTCPPCPAPELLGGPSVFLFPPKPKDTLMISRTPEVTCVVVDVSHEDPEVKFNWYVDGVEVHNAKTKPREEQYASTYRVVSVLTVLHQDWLNGKEYKCKVSNKALPAPIEKTISKAKGQPREPQVYTLPPSRDELTKNQVSLTCLVKGFYPSDIAVEWESNGQPENNYKTTPPVLDSDGSFFLYSKLTVDKSRWQQGNVFSCSVLHEALHSHYTQKSLSLSPGK
light: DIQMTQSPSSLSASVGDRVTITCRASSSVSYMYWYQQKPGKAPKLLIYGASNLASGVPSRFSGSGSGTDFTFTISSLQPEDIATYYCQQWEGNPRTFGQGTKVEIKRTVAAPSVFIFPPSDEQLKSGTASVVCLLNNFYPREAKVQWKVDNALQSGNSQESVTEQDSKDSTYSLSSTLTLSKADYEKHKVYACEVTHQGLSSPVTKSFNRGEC
notes: as for B1
B8 gave a Kd [1] of 0.051 nM, a Kd [2] of 0.051 nM and a Kd [3] of 16.9 nM. For the same binder, the Kd [4] was 0.034 nM, the Kd [5] was 290 nM and the Kd [6] was 0.051 nM.

B9: Antibody 19 (Fab format) (Fab, V domains shown)
VH: QVQLQESGPGLVRPSQTLSLTCTVSGFDITDTYMHWVRQRPGRGLEWMGRIEPAGGHTKYNPSLKSRVTITRDTSKNQVSLRLSSVTAADTAVYYCVRSGGLPDVWGQGSLVTVSS
VL: DIQMTQSPSSLSASVGDRVTITCRASQGVEYMYWYQQKPGKAPKLLIYYASNLASGVPSRFSGSGSGTDFTFTISSLQPEDIATYYCQQWEGNPRTFGQGTKVEIK
notes: High priority lead, Fab format
With B9 the Kd [7] was 0.72 nM, the Kd [8] was 5.14 nM and the Kd [9] was 0.72 nM. For the same binder, the Kd [10] was less than 1 nM.

B10: Antibody 20 (Fab format) (Fab, V domains shown)
VH: QVQLQESGPGLVRPSQTLSLTCTVSGFDIQDTYMHWVRQRPGRGLEWMGRIEPASGHTKYNPSLKSRVTITRDTSKNQVSLRLSSVTAADTAVYYCARSGGMPDMWGQGSLVTVSS
VL: DIQMTQSPSSLSASVGDRVTITCRASQGVMYMYWYQQKPGKAPKLLIYGASNLASGVPSRFSGSGSGTDFTFTISSLQPEDIATYYCQQWEGNPRTFGQGTKVEIK
notes: as for B9
Work on B10 yielded a Kd [7] of 0.76 nM, a Kd [8] of 1.28 nM and a Kd [9] of 0.76 nM. The Kd [10] was less than 1 nM.
